Assay results taken from US20240116999A1 (TRUSTEES OF INDIANA UNIVERSITY, published 2024).
Bridge positions count the residues as written; N and C are the ends. Square brackets hold non-standard residues; d marks the D form. Ends that are not written are not given here. Orn = NCCC[C@H](N)C(=O)O

Target: glucagon receptor (GCGR)
Experiment: cell-based or functional assay

B1: O12, O18, K13, E17-Lactam-Glucagon-EEK (peptide)
peptide: HSQGTFTSDYS[Orn]KLDSE[Orn]AQDFVQWLMNTEEK
modifications: lactam 13-17
EC50, cell-based cyclic AMP (cAMP) activity assay: 126 nM

B2: Glucagon-EEK (peptide)
peptide: HSQGTFTSDYS[Orn]YLDS[Orn][Orn]AQDFVQWLMNTEEK
EC50, cell-based cyclic AMP (cAMP) activity assay: 93.5 nM
